Source: patent US20210101998A1 (Pfizer, published 2021)
Where two headings read alike, the source gives them in different places.

T1: rabTFPI K1K2 (rabbit, limits assumed)
T1 construct: also called Rabbit TFPI K1K2; rabbit TFPI
T1 chain: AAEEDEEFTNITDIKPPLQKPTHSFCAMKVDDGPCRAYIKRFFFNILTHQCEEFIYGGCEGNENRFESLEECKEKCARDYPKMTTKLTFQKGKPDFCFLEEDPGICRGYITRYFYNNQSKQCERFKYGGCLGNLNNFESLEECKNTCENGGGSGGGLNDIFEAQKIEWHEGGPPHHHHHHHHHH

T2: murTFPI K1K2 (mouse)
T2 construct: also called Mouse TFPI K1K2; mouse TFPI
T2 chain: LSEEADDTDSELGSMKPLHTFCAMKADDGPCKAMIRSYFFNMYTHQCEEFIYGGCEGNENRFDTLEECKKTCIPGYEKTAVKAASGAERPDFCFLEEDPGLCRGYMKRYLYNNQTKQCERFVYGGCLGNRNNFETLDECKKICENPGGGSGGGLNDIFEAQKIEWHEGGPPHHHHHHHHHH


Tests used:
humTFPI K1K2 [1] = molecular target: T3, humTFPI K1K2 (human); assay: SPR, antibody ligand, TFPI analyte
T3 construct: Biotinylated on the AviTag for ELISA; also called Human TFPIα K1K2; humTFPI K1K2-aviHis10
Procedure: The flow cells were activated by injecting a 1:1 mixture of 400 mM 1-Ethyl-3-(3-dimethylaminopropyl) carbodiimide hydrochloride (EDC) and N-hydroxysuccinimide (NHS) for 7 minutes at a flow rate of 10 μl/minute. Anti-human IgG antibody was diluted to 25 μg/ml in 10 mM Sodium Acetate pH 5.0 and injected over all flow cells for 7 minutes at 10 ul/minute. All flow cells were blocked with 1 M Ethanolamine-HCL (ETH) for 7 minutes at 10 μl/minute. Final immobilization level of the capture antibody was approximately 10,000 resonance units (RU). The running buffer for immobilization and kinetics was 10 mM HEPES pH 7.4, 150 mM NaCl, 3 mM EDTA, 0.05% (v/v) Tween-20 (HBS-EP+). […] Flow cell 1 was used as a reference surface. […] At the end of each cycle, the entire anti-IgG surface was regenerated by a 60 second pulse of 3 M MgCl2. Kinetic assays were conducted at 25° C. at a collection rate of 10 Hz on a BIAcore T200 instrument (GE Healthcare). Rate constants and affinities were determined by fitting the data to a 1:1 model in BIAcore T200 Evaluation software version 1.0 (GE).

humTFPI K1K2 [2] = molecular target: T3, humTFPI K1K2; assay: ELISA, biotinylated TFPI on streptavidin plate
rabTFPI K1K2 [3] = molecular target: T1, rabTFPI K1K2; assay: ELISA, biotinylated TFPI on streptavidin plate
humTFPI K1K2 [4] = molecular target: T3, humTFPI K1K2; assay: cell-based or functional assay
humTFPI K1K2 [5] = molecular target: T3, humTFPI K1K2; assay: SPR, antibody ligand, TFPI analyte; remark: listed apart in the source
rabTFPI K1K2 [6] = molecular target: T1, rabTFPI K1K2; assay: SPR, antibody ligand, TFPI analyte
humTFPI K1K2 [7] = molecular target: T3, humTFPI K1K2; assay: ELISA, biotinylated TFPI on streptavidin plate; remark: listed apart in the source
Procedure: (§1) Purified anti-TFPI antibodies were diluted to 1 ug/ml in ELISA assay buffer, then serially diluted three-fold to generate an eight-point dilution series. The diluted antibodies were added at a volume of 100 uL per well. The plates were incubated at room temperature for 2 hours. After washing the plates with PBS/0.05% Tween 20, the plates were incubated with a goat anti-mouse IgG-Fc polyclonal antibody conjugated with horseradish peroxidase (Pierce) at 1:10,000 dilution. After 1 hour of incubation, bound antibody was detected with the addition of a TMB substrate solution. Absorbances were read a 450 nm, and the data were analyzed by GraphPad Prism software.

rabTFPI K1K2 [8] = molecular target: T1, rabTFPI K1K2; assay: ELISA, biotinylated TFPI on streptavidin plate
Procedure: as §1

humTFPI K1K2 [9] = molecular target: T3, humTFPI K1K2; assay: cell-based or functional assay; remark: listed apart in the source
humTFPI K1K2 [10] = molecular target: T3, humTFPI K1K2; assay: SPR, antibody ligand, TFPI analyte; remark: listed apart in the source
murTFPI K1K2 = molecular target: T2, murTFPI K1K2; assay: SPR, antibody ligand, TFPI analyte

| Binder | Kd (humTFPI K1K2 [1]) [nM] | koff (humTFPI K1K2 [1]) [s⁻¹] | kon (humTFPI K1K2 [1]) [M⁻¹ s⁻¹] | EC50 (humTFPI K1K2 [2]) [nM] | EC50 (rabTFPI K1K2 [3]) [nM] | other results |
| --- | --- | --- | --- | --- | --- | --- |
| 4D8-Vk1.0 × VH1.0 (antibody, human IgG1, kappa, V domains shown, Humanized 4D8 variant) VH: EVQLVESGGGLVQPGGSLRLSCAASGYTFTDYNLDWVRQAPGKGLEWVADINPINGATLYNQKFKGRFTISRDNAKNSLYLQMNSLRAEDTAVYYCARYYGDYDAMDYWGQGTLVTVSS VL: DIQMTQSPSSLSASVGDRVTITCKASQDVHTAVAWYQQKPGKAPKLLIYWASTRHTGVPSRFSGSGSGTDFTLTISSLQPEDFATYYCQQHYTTPYTFGQGTKLEIKR | 6.94 | 0.00047 | 67700 | 0.0772 | 0.0785 | – |
| 4D8-Vk1.1 × VH1.0 (antibody, human IgG1, kappa, V domains shown, Humanized 4D8 variant) VH: EVQLVESGGGLVQPGGSLRLSCAASGYTFTDYNLDWVRQAPGKGLEWVADINPINGATLYNQKFKGRFTISRDNAKNSLYLQMNSLRAEDTAVYYCARYYGDYDAMDYWGQGTLVTVSS VL: DIQMTQSPSSLSASVGDRVTITCKASQDVHTAVAWYQQKPGKAPKLLIYWASTRHTGVPSRFSGSGSGTDYTLTISSLQPEDFATYYCQQHYTTPYTFGQGTKLEIKR | – | – | – | 0.0429 | 0.0451 | – |
| 4D8-Vk1.1 × VH1.1 (antibody, human IgG1, kappa, V domains shown, Humanized 4D8 variant) VH: EVQLVESGGGLVQPGGSLRLSCAASGYTFTDYNLDWVRQAPGKGLEWVGDINPINGATLYNQKFKGRATISVDQAKNSAYLQMNSLRAEDTAVYYCARYYGDYDAMDYWGQGTLVTVSS VL: DIQMTQSPSSLSASVGDRVTITCKASQDVHTAVAWYQQKPGKAPKLLIYWASTRHTGVPSRFSGSGSGTDYTLTISSLQPEDFATYYCQQHYTTPYTFGQGTKLEIKR | 0.832 | 0.000161 | 193000 | 0.0818 | 0.0788 | – |
| 4D8-Vk1.0 × VH1.3 (antibody, human IgG1, kappa, V domains shown, Humanized 4D8 variant) VH: EVQLVESGGGLVQPGGSLRLSCAASGYTFTDYNLDWVRQAPGKGLEWVADINPINGATLYNQKFKGRATISRDNAKNSLYLQMNSLRAEDTAVYYCARYYGDYDAMDYWGQGTLVTVSS VL: DIQMTQSPSSLSASVGDRVTITCKASQDVHTAVAWYQQKPGKAPKLLIYWASTRHTGVPSRFSGSGSGTDFTLTISSLQPEDFATYYCQQHYTTPYTFGQGTKLEIKR | 7.19 | 0.000571 | 79500 | 0.0822 | 0.0556 | – |
| 4D8-Vk1.0 × VH1.4 (antibody, human IgG1, kappa, V domains shown, Humanized 4D8 variant) VH: EVQLVESGGGLVQPGGSLRLSCAASGYTFTDYNLDWVRQAPGKGLEWVADINPINGATLYNQKFKGRFTISRDQAKNSLYLQMNSLRAEDTAVYYCARYYGDYDAMDYWGQGTLVTVSS VL: DIQMTQSPSSLSASVGDRVTITCKASQDVHTAVAWYQQKPGKAPKLLIYWASTRHTGVPSRFSGSGSGTDFTLTISSLQPEDFATYYCQQHYTTPYTFGQGTKLEIKR | 11.1 | 0.000835 | 75500 | 0.056 | 0.0426 | – |
| 4D8-Vk1.1 × VH1.3 (antibody, human IgG1, kappa, V domains shown, Humanized 4D8 variant) VH: EVQLVESGGGLVQPGGSLRLSCAASGYTFTDYNLDWVRQAPGKGLEWVADINPINGATLYNQKFKGRATISRDNAKNSLYLQMNSLRAEDTAVYYCARYYGDYDAMDYWGQGTLVTVSS VL: DIQMTQSPSSLSASVGDRVTITCKASQDVHTAVAWYQQKPGKAPKLLIYWASTRHTGVPSRFSGSGSGTDYTLTISSLQPEDFATYYCQQHYTTPYTFGQGTKLEIKR | 0.823 | 0.000131 | 159000 | 0.0651 | 0.0511 | – |
| 4D8-Vk1.0 × VH1.2 (antibody, human IgG1, kappa, V domains shown, Humanized 4D8 variant) VH: EVQLVESGGGLVQPGGSLRLSCAASGYTFTDYNLDWVRQAPGKGLEWVGDINPINGATLYNQKFKGRFTISRDNAKNSLYLQMNSLRAEDTAVYYCARYYGDYDAMDYWGQGTLVTVSS VL: DIQMTQSPSSLSASVGDRVTITCKASQDVHTAVAWYQQKPGKAPKLLIYWASTRHTGVPSRFSGSGSGTDFTLTISSLQPEDFATYYCQQHYTTPYTFGQGTKLEIKR | 0.695 | 0.000165 | 238000 | 0.0758 | 0.0422 | – |
| 4D8-Vk1.1 × VH1.2 (antibody, human IgG1, kappa, V domains shown, Humanized 4D8 variant) VH: EVQLVESGGGLVQPGGSLRLSCAASGYTFTDYNLDWVRQAPGKGLEWVGDINPINGATLYNQKFKGRFTISRDNAKNSLYLQMNSLRAEDTAVYYCARYYGDYDAMDYWGQGTLVTVSS VL: DIQMTQSPSSLSASVGDRVTITCKASQDVHTAVAWYQQKPGKAPKLLIYWASTRHTGVPSRFSGSGSGTDYTLTISSLQPEDFATYYCQQHYTTPYTFGQGTKLEIKR | 0.627 | 9.49e-05 | 151000 | 0.059 | 0.0783 | – |
| 4D8-Vk1.0 × VH1.1 (antibody, human IgG1, kappa, V domains shown, Humanized 4D8 variant) VH: EVQLVESGGGLVQPGGSLRLSCAASGYTFTDYNLDWVRQAPGKGLEWVGDINPINGATLYNQKFKGRATISVDQAKNSAYLQMNSLRAEDTAVYYCARYYGDYDAMDYWGQGTLVTVSS VL: DIQMTQSPSSLSASVGDRVTITCKASQDVHTAVAWYQQKPGKAPKLLIYWASTRHTGVPSRFSGSGSGTDFTLTISSLQPEDFATYYCQQHYTTPYTFGQGTKLEIKR | 25.4 | 0.00154 | 60600 | 0.0884 | 0.0705 | – |
| 6B7.c5 (antibody, mouse IgG1, kappa, V domains shown, Mouse hybridoma antibody; also called mouse 6b7.c5) VH: EVLLQQSGPELVKPGSSVKIPCKASGYTFTDYTMDWVKQSHGKSLEWIGDINPSNGGSIYNRKFKGKATLTVDKSSSTAYMELRSLTSEDTAVYYCARMHYNYDGFPYWGQGTLVTVSA VL: DIVMTQSHKFMSTSVGDRVSITCKASQDVITAVAWYQQKPGQSPKLLIYWASTRHTGVPVRFTGSGSGTDYTLTIISVQAEDLALYYCQQHYSTPYTFGGGTKLEIKA | – | – | – | – | – | FXa EC50 (humTFPI K1K2 [4]): 13.9 nM; FXa-FVIIa EC50 (humTFPI K1K2 [4]): 12.1 nM; Kd (humTFPI K1K2 [5]): 6.58 nM; koff (humTFPI K1K2 [5]): 0.00363 s⁻¹; kon (humTFPI K1K2 [5]): 552000 M⁻¹ s⁻¹; Kd (rabTFPI K1K2 [6]): 4.95 nM; koff (rabTFPI K1K2 [6]): 0.00564 s⁻¹; kon (rabTFPI K1K2 [6]): 1.14e+06 M⁻¹ s⁻¹; EC50 (humTFPI K1K2 [7]): 0.121 nM; EC50 (rabTFPI K1K2 [8]): 0.129 nM |
| TFPI-26 (antibody, human IgG1, lambda, V domains shown, Human IgG1-3M from phage display; also called mAb-TFPI-26) VH: not shown VL: QSVLTQPPSLSGAPGQRVTISCTGSSSNLGADYDVQWYQQLPGTAPKLLIFGNNNRPSGVPDRFSGSRSGTSASLAITGLQAEDEANYYCQSYDRSLSGSMVFGGGTKLTVLG | – | – | – | – | – | FXa EC50 (humTFPI K1K2 [9]): 12.8 nM; FXa-FVIIa EC50 (humTFPI K1K2 [9]): 9.6 nM; Kd (humTFPI K1K2 [10]): 5.79 nM; koff (humTFPI K1K2 [10]): 0.00118 s⁻¹; kon (humTFPI K1K2 [10]): 205000 M⁻¹ s⁻¹; Kd (murTFPI K1K2): 3.68 nM; koff (murTFPI K1K2): 0.00476 s⁻¹; kon (murTFPI K1K2): 1.29e+06 M⁻¹ s⁻¹ |
| TFPI-3 (antibody, human IgG1, kappa, V domains shown, Human IgG1-3M from phage display; also called mAb-TFPI-3) VH: not shown VL: AIQLTQSPSSLSASVGDRVTITCRASQGISSSLAWYQQKPGKAPKLLIYAASTLQSGVPSRFSGSGSGTDFTLTISSLQPEDFATYYCQQLDSYPLSFGQGTKLEIKR | – | – | – | – | – | FXa EC50 (humTFPI K1K2 [9]): 208 nM; FXa-FVIIa EC50 (humTFPI K1K2 [9]): 37.4 nM; Kd (humTFPI K1K2 [10]): 27.1 nM; koff (humTFPI K1K2 [10]): 0.0017 s⁻¹; kon (humTFPI K1K2 [10]): 62500 M⁻¹ s⁻¹; Kd (murTFPI K1K2): 3.81 nM; koff (murTFPI K1K2): 0.000824 s⁻¹; kon (murTFPI K1K2): 215000 M⁻¹ s⁻¹ |
| 7A4.D9 (antibody, mouse IgG1, kappa, V domains shown, Mouse hybridoma antibody; also called mouse 7A4.D9) VH: EVQLQQSGPELVKPGASVKMSCKASGYTFTSYVMHWVKQKPGQGLEWIGYLNPYNDGTKYNEKFKGKASLISDKSSSTVYMELSSLTSEDSAVYYCATTLLYAMDYWGQGSSVTVSS VL: DIVLTQSPASLAVSLGQRATISCRASKSVSTSGYTYMHWYQQKPGQPPKLLIYLASNLESGVPARFSGSGSGTDFTLNIHPVEEEDAAAYYCQHIRELPFTFGSGTKLEIKA | – | – | – | – | – | FXa EC50 (humTFPI K1K2 [4]): 22.3 nM; FXa-FVIIa EC50 (humTFPI K1K2 [4]): 9.35 nM; Kd (humTFPI K1K2 [5]): 6.22 nM; koff (humTFPI K1K2 [5]): 0.00921 s⁻¹; kon (humTFPI K1K2 [5]): 1.48e+06 M⁻¹ s⁻¹; Kd (rabTFPI K1K2 [6]): 3.55 nM; koff (rabTFPI K1K2 [6]): 0.0188 s⁻¹; kon (rabTFPI K1K2 [6]): 5.3e+06 M⁻¹ s⁻¹; EC50 (humTFPI K1K2 [7]): 0.0887 nM; EC50 (rabTFPI K1K2 [8]): 0.0887 nM |
